According to the supplement of paper PMC5998384:

Tests used:
HeLa Kyoto [1] = assay: solubility in G1/S (NP-40 vs SDS abundance) (log2 ratio); higher = more soluble; conditions: cell cycle stage: G1/S
HeLa Kyoto [2] = assay: melting temperature (median over replicates), in situ; higher = more thermally stable
HeLa Kyoto [3] = assay: solubility change mitosis vs G1/S (difference of NP-40 vs SDS log2 ratios) (log2 ratio difference); higher = more soluble in mitosis
HeLa Kyoto [4] = assay: thermal stability score vs G1/S (z-score of summed log2 fold changes over temperatures); higher = more thermally stable than in G1/S
[5] = cell cycle stage: early G1 (4.5 h after nocodazole release)
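Wherever melting temperature (median over replicates), in situ is given: HeLa Kyoto cells synchronized by double thymidine or nocodazole block, proteins quantified by TMT10plex mass spectrometry, three independent biological replicates.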
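Wherever solubility change mitosis vs G1/S (difference of NP-40 vs SDS log2 ratios) is given: synchronized HeLa Kyoto cells (double thymidine block for G1/S, nocodazole release for mitosis), protein amounts in NP-40 versus SDS lysates quantified by mass spectrometry, three biological replicates.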
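Wherever solubility in G1/S (NP-40 vs SDS abundance) is given: HeLa Kyoto cells arrested at G1/S by double thymidine block, proteins quantified by TMT10plex mass spectrometry in mild NP-40 versus SDS extracts, three biological replicates.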
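Wherever thermal stability score vs G1/S (z-score of summed log2 fold changes over temperatures) is given: synchronized HeLa Kyoto cells, proteins quantified by TMT10plex mass spectrometry, three biological replicates, mitosis taken 0.5 h after nocodazole release, G1/S directly after double thymidine block.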

Row | Sequence | solubility in G1/S (log2) (HeLa Kyoto [1]) | melting temperature (HeLa Kyoto [2]; cell cycle stage: G1/S) | melting temperature (HeLa Kyoto [2]; cell cycle stage: mitosis) | solubility change mitosis (log2) (HeLa Kyoto [3]) | thermal stability score (HeLa Kyoto [4]; [5]) | thermal stability score (HeLa Kyoto [4]; cell cycle stage: mitosis)
1 | MAKGDPKKPKGKMSAYAFFVQTCREEHKKKNPEVPVNFAEFSKKCSERWKTMSGKEKSKFDEMAKADKVRYDREMKDYGPAKGGKKKKDPNAPKRPPSGFFLFCSEFRPKIKSTNPGISIGDVAKKLGEMWNNLNDSEKQPYITKAAKLKEKYEKDVADYKSKGKFDGAKGPAKVARKKVEEEDEEEEEEEEEEEEEEDE [HMGB3] | 0.667 | 57 °C | 57.3 °C | 0.349 | 1.34 | 0.604
2 | MAKIAKTHEDIEAQIREIQGKKAALDEAQGVGLDSTGYYDQEIYGGSDSRFAGYVTSIAATELEDDDDDYSSSTSLLGQKKPGYHAPVALLNDIPQSTEQYDPFAEHRPPKIADREDEYKKHRRTMIISPERLDPFADGGKTPDPKMNARTYMDVMREQHLTKEEREIRQQLAEKAKAGELKVVNGAAASQPPSKRKRRWDQTADQTPGATPKKLSSWDQAETPGHTPSLRWDETPGRAKGSETPGATPGSKIWDPTPSHTPAGAATPGRGDTPGHATPGHGGATSSARKNRWDETPKTERDTPGHGSGWAETPRTDRGGDSIGETPTPGASKRKSRWDETPASQMGGSTPVLTPGKTPIGTPAMNMATPTPGHIMSMTPEQLQAWRWEREIDERNRPLSDEELDAMFPEGYKVLPPPAGYVPIRTPARKLTATPTPLGGMTGFHMQTEDRTMKSVNDQPSGNLPFLKPDDIQYFDKLLVDVDESTLSPEEQKERKIMKLLLKIKNGTPPMRKAALRQITDKAREFGAGPLFNQILPLLMSPTLEDQERHLLVKVIDRILYKLDDLVRPYVHKILVVIEPLLIDEDYYARVEGREIISNLAKAAGLATMISTMRPDIDNMDEYVRNTTARAFAVVASALGIPSLLPFLKAVCKSKKSWQARHTGIKIVQQIAILMGCAILPHLRSLVEIIEHGLVDEQQKVRTISALAIAALAEAATPYGIESFDSVLKPLWKGIRQHRGKGLAAFLKAIGYLIPLMDAEYANYYTREVMLILIREFQSPDEEMKKIVLKVVKQCCGTDGVEANYIKTEILPPFFKHFWQHRMALDRRNYRQLVDTTVELANKVGAAEIISRIVDDLKDEAEQYRKMVMETIEKIMGNLGAADIDHKLEEQLIDGILYAFQEQTTEDSVMLNGFGTVVNALGKRVKPYLPQICGTVLWRLNNKSAKVRQQAADLISRTAVVMKTCQEEKLMGHLGVVLYEYLGEEYPEVLGSILGALKAIVNVIGMHKMTPPIKDLLPRLTPILKNRHEKVQENCIDLVGRIADRGAEYVSAREWMRICFELLELLKAHKKAIRRATVNTFGYIAKAIGPHDVLATLLNNLKVQERQNRVCTTVAIAIVAETCSPFTVLPALMNEYRVPELNVQNGVLKSLSFLFEYIGEMGKDYIYAVTPLLEDALMDRDLVHRQTASAVVQHMSLGVYGFGCEDSLNHLLNYVWPNVFETSPHVIQAVMGALEGLRVAIGPCRMLQYCLQGLFHPARKVRDVYWKIYNSIYIGSQDALIAHYPRIYNDDKNTYIRYELDYIL [SF3B1] | -0.486 | 50.9 °C | 50.4 °C | 0.299 | -1.78 | -0.315
3 | MAKRSRGPGRRCLLALVLFCAWGTLAVVAQKPGAGCPSRCLCFRTTVRCMHLLLEAVPAVAPQTSILDLRFNRIREIQPGAFRRLRNLNTLLLNNNQIKRIPSGAFEDLENLKYLYLYKNEIQSIDRQAFKGLASLEQLYLHFNQIETLDPDSFQHLPKLERLFLHNNRITHLVPGTFNHLESMKRLRLDSNTLHCDCEILWLADLLKTYAESGNAQAAAICEYPRRIQGRSVATITPEELNCERPRITSEPQDADVTSGNTVYFTCRAEGNPKPEIIWLRNNNELSMKTDSRLNLLDDGTLMIQNTQETDQGIYQCMAKNVAGEVKTQEVTLRYFGSPARPTFVIQPQNTEVLVGESVTLECSATGHPPPRISWTRGDRTPLPVDPRVNITPSGGLYIQNVVQGDSGEYACSATNNIDSVHATAFIIVQALPQFTVTPQDRVVIEGQTVDFQCEAKGNPPPVIAWTKGGSQLSVDRRHLVLSSGTLRISGVALHDQGQYECQAVNIIGSQKVVAHLTVQPRVTPVFASIPSDTTVEVGANVQLPCSSQGEPEPAITWNKDGVQVTESGKFHISPEGFLTINDVGPADAGRYECVARNTIGSASVSMVLSVNVPDVSRNGDPFVATSIVEAIATVDRAINSTRTHLFDSRPRSPNDLLALFRYPRDPYTVEQARAGEIFERTLQLIQEHVQHGLMVDLNGTSYHYNDLVSPQYLNLIANLSGCTAHRRVNNCSDMCFHQKYRTHDGTCNNLQHPMWGASLTAFERLLKSVYENGFNTPRGINPHRLYNGHALPMPRLVSTTLIGTETVTPDEQFTHMLMQWGQFLDHDLDSTVVALSQARFSDGQHCSNVCSNDPPCFSVMIPPNDSRARSGARCMFFVRSSPVCGSGMTSLLMNSVYPREQINQLTSYIDASNVYGSTEHEARSIRDLASHRGLLRQGIVQRSGKPLLPFATGPPTECMRDENESPIPCFLAGDHRANEQLGLTSMHTLWFREHNRIATELLKLNPHWDGDTIYYETRKIVGAEIQHITYQHWLPKILGEVGMRTLGEYHGYDPGINAGIFNAFATAAFRFGHTLVNPLLYRLDENFQPIAQDHLPLHKAFFSPFRIVNEGGIDPLLRGLFGVAGKMRVPSQLLNTELTERLFSMAHTVALDLAAINIQRGRDHGIPPYHDYRVYCNLSAAHTFEDLKNEIKNPEIREKLKRLYGSTLNIDLFPALVVEDLVPGSRLGPTLMCLLSTQFKRLRDGDRLWYENPGVFSPAQLTQIKQTSLARILCDNADNITRVQSDVFRVAEFPHGYGSCDEIPRVDLRVWQDCCEDCRTRGQFNAFSYHFRGRRSLEFSYQEDKPTKKTRPRKIPSVGRQGEHLSNSTSAFSTRSDASGTNDFREFVLEMQKTITDLRTQIKKLESRLSTTECVDAGGESHANNTKWKKDACTICECKDGQVTCFVEACPPATCAVPVNIPGACCPVCLQKRAEEKP [PXDN] | -0.0223 | 54 °C | 54.5 °C | -0.103 | 3.4 | 3.61
4 | MAKTVAYFYDPDVGNFHYGAGHPMKPHRLALTHSLVLHYGLYKKMIVFKPYQASQHDMCRFHSEDYIDFLQRVSPTNMQGFTKSLNAFNVGDDCPVFPGLFEFCSRYTGASLQGATQLNNKICDIAINWAGGLHHAKKFEASGFCYVNDIVIGILELLKYHPRVLYIDIDIHHGDGVQEAFYLTDRVMTVSFHKYGNYFFPGTGDMYEVGAESGRYYCLNVPLRDGIDDQSYKHLFQPVINQVVDFYQPTCIVLQCGADSLGCDRLGCFNLSIRGHGECVEYVKSFNIPLLVLGGGGYTVRNVARCWTYETSLLVEEAISEELPYSEYFEYFAPDFTLHPDVSTRIENQNSRQYLDQIRQTIFENLKMLNHAPSVQIHDVPADLLTYDRTDEADAEERGPEENYSRPEAPNEFYDGDHDNDKESDVEI [HDAC3] | -0.055 |  | 52.6 °C | -0.161 | 1.43 | 1.96
5 | MAKVSELYDVTWEEMRDKMRKWREENSRNSEQIVEVGEELINEYASKLGDDIWIIYEQVMIAALDYGRDDLALFCLQELRRQFPGSHRVKRLTGMRFEAMERYDDAIQLYDRILQEDPTNTAARKRKIAIRKAQGKNVEAIRELNEYLEQFVGDQEAWHELAELYINEHDYAKAAFCLEELMMTNPHNHLYCQQYAEVKYTQGGLENLELSRKYFAQALKLNNRNMRALFGLYMSASHIASNPKASAKTKKDNMKYASWAASQINRAYQFAGRSKKETKYSLKAVEDMLETLQITQS [EMC2] | 0.188 | 53.8 °C | 53.9 °C | 0.0699 | -1.21 | -1.88
6 | MALFAVFQTTFFLTLLSLRTYQSEVLAERLPLTPVSLKVSTNSTRQSLHLQWTVHNLPYHQELKMVFQIQISRIETSNVIWVGNYSTTVKWNQVLHWSWESELPLECATHFVRIKSLVDDAKFPEPNFWSNWSSWEEVSVQDSTGQDILFVFPKDKLVEEGTNVTICYVSRNIQNNVSCYLEGKQIHGEQLDPHVTAFNLNSVPFIRNKGTNIYCEASQGNVSEGMKGIVLFVSKVLEEPKDFSCETEDFKTLHCTWDPGTDTALGWSKQPSQSYTLFESFSGEKKLCTHKNWCNWQITQDSQETYNFTLIAENYLRKRSVNILFNLTHRVYLMNPFSVNFENVNATNAIMTWKVHSIRNNFTYLCQIELHGEGKMMQYNVSIKVNGEYFLSELEPATEYMARVRCADASHFWKWSEWSGQNFTTLEAAPSEAPDVWRIVSLEPGNHTVTLFWKPLSKLHANGKILFYNVVVENLDKPSSSELHSIPAPANSTKLILDRCSYQICVIANNSVGASPASVIVISADPENKEVEEERIAGTEGGFSLSWKPQPGDVIGYVVDWCDHTQDVLGDFQWKNVGPNTTSTVISTDAFRPGVRYDFRIYGLSTKRIACLLEKKTGYSQELAPSDNPHVLVDTLTSHSFTLSWKDYSTESQPGFIQGYHVYLKSKARQCHPRFEKAVLSDGSECCKYKIDNPEEKALIVDNLKPESFYEFFITPFTSAGEGPSATFTKVTTPDEHSSMLIHILLPMVFCVLLIMVMCYLKSQWIKETCYPDIPDPYKSSILSLIKFKENPHLIIMNVSDCIPDAIEVVSKPEGTKIQFLGTRKSLTETELTKPNYLYLLPTEKNHSGPGPCICFENLTYNQAASDSGSCGHVPVSPKAPSMLGLMTSPENVLKALEKNYMNSLGEIPAGETSLNYVSQLASPMFGDKDSLPTNPVEAPHCSEYKMQMAVSLRLALPPPTENSSLSSITLLDPGEHYC [OSMR] | -0.0468 | 50.9 °C | 51.1 °C | -0.0968 | 0.598 | -0.083
7 | MALHVPKAPGFAQMLKEGAKHFSGLEEAVYRNIQACKELAQTTRTAYGPNGMNKMVINHLEKLFVTNDAATILRELEVQHPAAKMIVMASHMQEQEVGDGTNFVLVFAGALLELAEELLRIGLSVSEVIEGYEIACRKAHEILPNLVCCSAKNLRDIDEVSSLLRTSIMSKQYGNEVFLAKLIAQACVSIFPDSGHFNVDNIRVCKILGSGISSSSVLHGMVFKKETEGDVTSVKDAKIAVYSCPFDGMITETKGTVLIKTAEELMNFSKGEENLMDAQVKAIADTGANVVVTGGKVADMALHYANKYNIMLVRLNSKWDLRRLCKTVGATALPRLTPPVLEEMGHCDSVYLSEVGDTQVVVFKHEKEDGAISTIVLRGSTDNLMDDIERAVDDGVNTFKVLTRDKRLVPGGGATEIELAKQITSYGETCPGLEQYAIKKFAEAFEAIPRALAENSGVKANEVISKLYAVHQEGNKNVGLDIEAEVPAVKDMLEAGILDTYLGKYWAIKLATNAAVTVLRVDQIIMAKPAGGPKPPSGKKDWDDDQND [CCT8] | 0.0969 | 54.2 °C | 53.9 °C | -0.0769 | -0.228 | -1.4
8 | MALKVATVAGSAAKAVLGPALLCRPWEVLGAHEVPSRNIFSEQTIPPSAKYGGRHTVTMIPGDGIGPELMLHVKSVFRHACVPVDFEEVHVSSNADEEDIRNAIMAIRRNRVALKGNIETNHNLPPSHKSRNNILRTSLDLYANVIHCKSLPGVVTRHKDIDILIVRENTEGEYSSLEHESVAGVVESLKIITKAKSLRIAEYAFKLAQESGRKKVTAVHKANIMKLGDGLFLQCCREVAARYPQITFENMIVDNTTMQLVSRPQQFDVMVMPNLYGNIVNNVCAGLVGGPGLVAGANYGHVYAVFETATRNTGKSIANKNIANPTATLLASCMMLDHLKLHSYATSIRKAVLASMDNENMHTPDIGGQGTTSEAIQDVIRHIRVINGRAVEA [IDH3G] | 0.253 | 54.5 °C | 54 °C | -0.0967 | -0.804 | -0.821
9 | MALLFARSLRLCRWGAKRLGVASTEAQRGVSFKLEEKTAHSSLALFRDDTGVKYGLVGLEPTKVALNVERFREWAVVLADTAVTSGRHYWEVTVKRSQQFRIGVADVDMSRDSCIGVDDRSWVFTYAQRKWYTMLANEKAPVEGIGQPEKVGLLLEYEAQKLSLVDVSQVSVVHTLQTDFRGPVVPAFALWDGELLTHSGLEVPEGL [SPRYD4] | -0.0415 | 53.9 °C | 54.8 °C | -0.14 | -1.47 | -3.25
